Measurements reported in US20230416394A1 (ELPISCIENCE SUZHOU BIOPHARMA, published 2023).
Each block holds one binder with its values, some of them ahead of it.

Experiments:
[1] = target: T1, mouse CD39 (mouse, UniProt P55772 1-510); assay: FACS, CHOK1-mCD39 cells
T1 construct: whole, on cells; also called mCD39; CHOK1-mCD39
T1 sequence (looked up): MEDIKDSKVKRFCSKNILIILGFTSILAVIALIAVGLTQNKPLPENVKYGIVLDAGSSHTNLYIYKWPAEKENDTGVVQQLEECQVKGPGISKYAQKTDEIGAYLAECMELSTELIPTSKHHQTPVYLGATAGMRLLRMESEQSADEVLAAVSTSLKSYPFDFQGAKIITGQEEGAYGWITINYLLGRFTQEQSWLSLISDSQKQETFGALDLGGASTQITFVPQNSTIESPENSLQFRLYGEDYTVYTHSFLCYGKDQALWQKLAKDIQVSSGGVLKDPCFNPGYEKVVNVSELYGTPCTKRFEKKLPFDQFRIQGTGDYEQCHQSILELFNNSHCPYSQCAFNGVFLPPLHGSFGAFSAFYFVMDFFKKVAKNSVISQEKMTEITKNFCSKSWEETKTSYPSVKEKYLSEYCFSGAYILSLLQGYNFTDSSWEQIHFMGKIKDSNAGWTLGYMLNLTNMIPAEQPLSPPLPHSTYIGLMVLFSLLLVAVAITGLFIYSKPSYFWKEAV
Excerpt: FACS were used to determine binding of the antibodies to cell lines expressing CD39 naturally (SK-MEL-28) or recombinantly (CHOK1-hCD39, CHOK1-cynoCD39, and CHOK1-mCD39), or with cells lacking CD39 expression (CHOK1-blank) as a negative control.
CHOK1-hCD39, CHOK1-cCD39, CHOK1-mCD39 and CHOK1-blank cells were maintained in culture medium according to ATCC procedure. Cells were collected and re-suspended in blocking buffer at a density of 3×10⁶ cells/ml. […] The plates were washed with FACS buffer, and cells were re-suspended in 100 μL/well of PBS. Cells were then analyzed with FACSVerse™ and mean fluorescence intensity were determined. Full binding curves were generated on the CD39 expressing cells by testing a range of antibody concentrations. Apparent affinity was determined for each antibody using Prism software.

[2] = target: T2, human CD39 (human, UniProt P49961 1-510); assay: FACS, MOLP-8 cells
T2 construct: full length human CD39 (NP_001767.3) on transfected CHOK1 cells, or native on SK-MEL-5, SK-MEL-28 and MOLP-8 cells; also called hCD39; ENTPD1
T2 sequence: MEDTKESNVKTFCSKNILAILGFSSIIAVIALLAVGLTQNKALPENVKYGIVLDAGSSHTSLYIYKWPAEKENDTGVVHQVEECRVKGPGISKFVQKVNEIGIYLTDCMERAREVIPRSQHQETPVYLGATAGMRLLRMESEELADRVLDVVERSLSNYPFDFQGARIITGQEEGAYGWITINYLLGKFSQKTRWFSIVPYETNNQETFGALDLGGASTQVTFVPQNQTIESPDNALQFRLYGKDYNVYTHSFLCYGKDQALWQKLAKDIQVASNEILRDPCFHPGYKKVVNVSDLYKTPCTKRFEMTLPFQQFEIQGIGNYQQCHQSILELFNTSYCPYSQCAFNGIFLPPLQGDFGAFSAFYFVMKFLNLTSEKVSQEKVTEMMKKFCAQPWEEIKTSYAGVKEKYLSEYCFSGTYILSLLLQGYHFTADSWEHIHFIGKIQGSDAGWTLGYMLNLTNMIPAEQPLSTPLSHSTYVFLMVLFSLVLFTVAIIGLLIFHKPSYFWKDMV

[3] = target: T2, human CD39; assay: cell-based or functional assay
[4] = target: T2, human CD39; assay: cell-based or functional assay; remark: listed apart in the source
[5] = target: T2, human CD39; assay: FACS, MOLP-8 cells, second set
[6] = target: T3, 6×His tagged human CD39 (human); assay: Biacore, antibody captured, 6×His human CD39 as analyte, 1:1 model
T3 chain: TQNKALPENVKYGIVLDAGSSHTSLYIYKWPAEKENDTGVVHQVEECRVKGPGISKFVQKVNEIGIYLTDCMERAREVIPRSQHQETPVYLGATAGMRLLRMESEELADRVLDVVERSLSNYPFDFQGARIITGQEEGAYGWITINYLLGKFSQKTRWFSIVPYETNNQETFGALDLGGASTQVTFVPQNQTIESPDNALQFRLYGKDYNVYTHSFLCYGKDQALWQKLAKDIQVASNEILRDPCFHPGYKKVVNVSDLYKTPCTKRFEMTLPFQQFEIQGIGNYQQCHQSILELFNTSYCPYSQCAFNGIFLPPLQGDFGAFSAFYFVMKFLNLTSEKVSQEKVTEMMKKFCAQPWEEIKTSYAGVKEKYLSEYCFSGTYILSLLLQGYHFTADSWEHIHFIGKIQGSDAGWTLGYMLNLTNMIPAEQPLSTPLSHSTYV
Protocol: In particular, humanized antibodies hu23.H5L5, hu23.201, hu14.H1L1 and reference antibodies I394 and T895 were characterized for binding affinity against human CD39 using Biacore (GE). Briefly the antibodies to be tested were captured to […] (GE) using Human Antibody Capture Kit (GE). The antigen of 6×His tagged human CD39 was serially diluted for multiple doses and injected at 30 μl/min for 180 s. Buffer flow was maintained for dissociation of 400 s. 3 M MgCl₂ was used for chip regeneration. The association and dissociation curves were fit with 1:1 binding model, and the Ka/Kd/KD values for each antibody were calculated.

- binding result [1]: no binding (tested: 30 µg/ml)
B1: mAb13 (antibody, V domains shown)
VH: QIQLVQSGPELKKPGETVKISCKASGYTFTNYGMNWVKQAPGKGLRWMGLINTYTGEPTYADDFKDRFAFSLETSASTAFLQINNLKDEDMATYFCARKGIYYDYVWFFDVWGAGTTVTVSS
VL: DIQMTQSPSSLSTSLGGKVSITCKASQDINRYIAWYQHKPGKGPRLLIHYTSTLLPGIPSRFSGSGSGRDYSFSISNLEPEDIATYFCLQYSNLLTFGGGTKLEIK
notes: mouse hybridoma antibody

- binding result [1]: no binding (tested: 30 µg/ml)
B2: mAb14 (antibody, V domains shown)
VH: EVKLEESGGGLVQPGGSMKLSCVASGFTFSKYWMNWVRQSPEKGLEWVAEIRLKSNKYGTHYAESVKGRFTISRDDSKNNVYLQMNNLRPEDTGIYYCTTQLDLYWFFDVWGAGTTVTVSS
VL: DIVMTQSPAILSVTPGDRVSLSCRASQSISDYLHWYQQKSHESPRLLIKYASQSISGIPSRFSGSGSGSNFTLSINSVEPEDVGVYFCQNGHSLPLTFGAGTKLELR
notes: mouse hybridoma antibody

- binding result [1]: no binding (tested: 30 µg/ml)
B3: mAb19 (antibody, V domains shown)
VH: EVKLEKSGGGLVQPGGSMKLSCVASGFTFSNYWMNWVRQSPEKGLEWVAQIRLNPDNYATHYAESVKGRFTISRDDYKNSVYLQMSSLRAEDSGIYYCTQHGSRGFAYWGQGTLVTVS
VL: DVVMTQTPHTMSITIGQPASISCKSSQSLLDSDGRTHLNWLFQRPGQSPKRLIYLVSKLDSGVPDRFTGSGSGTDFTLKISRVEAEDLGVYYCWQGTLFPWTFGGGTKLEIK
notes: mouse hybridoma antibody

- EC50 [2]: ~15.4 nM
B4: hu23.H3L1 (antibody, V domains shown)
VH: QVQLVQSGAEVKKPGASVKLSCKASGYNLKDTFLHWVRQAPGQGLEWIGRIDPANGNIKYDPKFQGRATITADTSASTAYMELSSLRSEDTAVYYCANSPYYYGSGYRIFDVWGQGTTVTVSS
VL: EIVLTQSPATLSLSPGERATLSCSAFSSVNYMHWYQQKPGQAPRLLIYTTSNLASGIPARFSGSGSGTDFTLTISSLEPEDFAVYYCQQRSTYPFTFGQGTKLEIK

- ATPase activity inhibition (IC50), MOLP-8 cells [3]: 0.33 nM
- ATPase activity inhibition (IC50), SK-MEL-5 cells [3]: 0.07 nM
- ATPase inhibition on SK-MEL-28 cells, IC50 [4]: 0.122 nM
B5: hu23.H5L5 (antibody, V domains shown)
VH: QVQLVQSGAEVKKPGASVKVSCKASGYNLKDTFLHWVRQAPGQGLEWMGRIDPANGNIKYDPKFQGRVTITADTSANTAYMELISLRSEDTAVYYCANSPYYYGSGYRIFDVWGQGTTVTVSS
VL: QIVLTQSPATLSLSPGERATLSCSAFSSVNYMHWYQQKPGQAPRLLIYTTSNLASGIPTRFSGSGSGTSYTLTISSLEPEDFAVYYCQQRSTYPFTFGQGTKLEIK

- EC50 [5]: ~78.2 nM
B6: hu23.H1L1 (antibody, V domains shown)
VH: QVQLVQSGAEVKKPGASVKVSCKASGYNLKDTFLHWVRQAPGQRLEWMGRIDPANGNIKYDPKFQGRVTITRDTSASTAYMELSSLRSEDTAVYYCARSPYYYGSGYRIFDVWGQGTTVTVSS
VL: EIVLTQSPATLSLSPGERATLSCSAFSSVNYMHWYQQKPGQAPRLLIYTTSNLASGIPARFSGSGSGTDFTLTISSLEPEDFAVYYCQQRSTYPFTFGQGTKLEIK

- binding result [1]: no binding (tested: 30 µg/ml)
B7: mAb35 (antibody, V domains shown)
VH: EVRLQQSGAELVKPGASVKLSCTASGFNIEDTYVHWMKQRPEQGLEWIGRIDPAIDNSKYDPKFQGKATITAVSSSNTAYLQLSSLTSEDTAVYYCALYDGYNVYAMDYWGQGTSVTVSS
VL: DIVMTQAAFSNPVTLGTSASISCRSSKNLLHSNGITYLYWYLQRPGQSPQLLIYRASTLASGVPNRFSGSESGTDFTLRISRVEAEDVGVYYCAQLLELPHTFGGGTKLEIK
notes: mouse hybridoma antibody

- binding result [1]: no binding (tested: 30 µg/ml)
B8: mAb21 (antibody, V domains shown)
VH: EVKLEKSGGGLVQPGGSMKLSCVASGFTFSNYWMNWVRQSPEKGLEWVAQIRLNPDNYATHFAESVKGRFTISRDDSKNSVYLQMNSLRAEDTGIYYCTEHGTRGFAYWGQGTLVTVSE
VL: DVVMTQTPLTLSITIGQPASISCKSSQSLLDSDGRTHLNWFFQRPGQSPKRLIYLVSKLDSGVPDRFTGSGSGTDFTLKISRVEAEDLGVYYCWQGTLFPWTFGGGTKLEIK
notes: mouse hybridoma antibody

- Kd [6]: 5.03 nM
- koff [6]: 0.00455 s⁻¹
- kon [6]: 903000 M⁻¹ s⁻¹
B9: hu14.H1L1 (antibody, V domains shown)
VH: EVQLVESGGGLVKPGGSLRLSCAASGFTFSKYWMNWVRQAPGKGLEWVGEIRLKSNKYGTHYAESVKGRFTISRDDSKNTLYLQMNSLKTEDTAVYYCTTQLDLYWFFDVWGQGTTVTVSS
VL: EIVLTQSPATLSLSPGERATLSCRASQSISDYLHWYQQKPGQAPRLLIYYASQSISGIPARFSGSGSGTDFTLTISSLEPEDFAVYYCQNGHSLPLTFGGGTKLEIK

- binding result [1]: no binding (tested: 30 µg/ml)
B10: mAb23 (antibody, V domains shown)
VH: EVQLQQSGAELLRPGASVKLSCTASGYNLKDTFLHWVKQRPEQGLEWIGRIDPANGNIKYDPKFQGKATLTADTSSNTAYLQLISLTSEDTAVYYCANSPYYYGSGYRIFDVWGAGTTVTVSS
VL: QIVLTQSPAIMSASPGEKVTITCSAFSSVNYMHWYQQKPGTSPKLLIYTTSNLASGVPTRFSGSGSGTSYSLTISRMEAEDAATYYCQQRSTYPFTFGSGTKLEIQ
notes: mouse hybridoma antibody

- binding result [1]: no binding (tested: 30 µg/ml)
B11: mAb34 (antibody, V domains shown)
VH: EIQVQQSGPELVKPGASVKVSCKASGYSFTDYNMYWVKQSHGKSLEWIGFIDPYNGYTSYNQKFKGKATLTIDKSSSTAFMHLNSLTSEDSAVYYCAIYGYDDAYYFDYWGQGTTLTVSS
VL: QIVLTQSPAIMSASPGEKVTITCSATSSVSYMHWFRQKPGTSPKLWIYSTSNLASGVPARFSGSGSGTSYSLTISRMAAEDAATYYCQQRITYPFTFGSGTKLEIT
notes: mouse hybridoma antibody

- ATPase activity inhibition (IC50), MOLP-8 cells [3]: 0.51 nM
- ATPase activity inhibition (IC50), SK-MEL-5 cells [3]: 0.09 nM
B12: T895 (antibody, V domains shown)
VH: EVQLQQSGPELVKPGASVKMSCKASGYTFTDYNMHWVKQSHGRTLEWIGYIVPLNGGSTFNQKFKGRATLTVNTSSRTAYMELRSLTSEDSAAYYCARGGTRFAYWGQGTLVTVSA
VL: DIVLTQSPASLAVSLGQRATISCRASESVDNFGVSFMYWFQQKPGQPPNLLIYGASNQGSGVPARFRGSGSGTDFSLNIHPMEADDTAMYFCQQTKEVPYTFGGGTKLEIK
